Source: patent US20210386875

Tested on: ^111In-labeled DTPA-pMMP9 peptide on non-radioactive 10 nm gold nanoparticles

Sequence of MMP9 (chain, as listed by the source): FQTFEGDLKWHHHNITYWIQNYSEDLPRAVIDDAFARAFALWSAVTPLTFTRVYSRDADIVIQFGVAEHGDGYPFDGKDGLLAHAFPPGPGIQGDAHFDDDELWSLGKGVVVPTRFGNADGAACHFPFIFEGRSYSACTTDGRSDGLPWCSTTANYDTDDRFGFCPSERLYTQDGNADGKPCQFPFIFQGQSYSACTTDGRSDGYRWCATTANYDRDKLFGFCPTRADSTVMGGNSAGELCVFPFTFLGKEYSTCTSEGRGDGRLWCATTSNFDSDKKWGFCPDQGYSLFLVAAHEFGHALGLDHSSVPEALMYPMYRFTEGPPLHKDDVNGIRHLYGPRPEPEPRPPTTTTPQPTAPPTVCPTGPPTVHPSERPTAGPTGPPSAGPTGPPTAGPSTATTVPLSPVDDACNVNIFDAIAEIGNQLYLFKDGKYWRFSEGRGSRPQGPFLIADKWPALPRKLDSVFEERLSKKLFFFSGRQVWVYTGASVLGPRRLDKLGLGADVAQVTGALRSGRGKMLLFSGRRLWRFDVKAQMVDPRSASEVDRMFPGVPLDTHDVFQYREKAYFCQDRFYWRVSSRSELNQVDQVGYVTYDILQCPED

For MMP9, the “percent of ^111In cleaved from the nanoparticle after 48 hours incubation with MMP9 (16% without MMP9)” value was 48% ^111In was cleaved from the nanoparticle compared to only 16% without MMP9.
